Assays:
Nlgn1, Q62765-2 [1] = target: Nlgn1, Q62765-2
nlgnx_human NLGN4X [2] = target: nlgnx_human NLGN4X (UniProt Q8N0W4)
Nlgn1, Q62765-2 [3] = target: Nlgn1, Q62765-2; remark: listed apart in the source
nlgnx_human NLGN4X [4] = target: nlgnx_human NLGN4X (UniProt Q8N0W4); remark: listed apart in the source
nlgnx_human NLGN4X [5] = target: nlgnx_human NLGN4X (UniProt Q8N0W4); remark: listed apart in the source
Nlgn1, Q62765-2 [6] = target: Nlgn1, Q62765-2; remark: listed apart in the source
nlgnx_human NLGN4X [7] = target: nlgnx_human NLGN4X (UniProt Q8N0W4); remark: listed apart in the source
Nlgn1, Q62765-2 [8] = target: Nlgn1, Q62765-2; remark: listed apart in the source

Sequence of Nlgn1, Q62765-2 (Q62765 other isoform, or with tags, fused parts or gaps): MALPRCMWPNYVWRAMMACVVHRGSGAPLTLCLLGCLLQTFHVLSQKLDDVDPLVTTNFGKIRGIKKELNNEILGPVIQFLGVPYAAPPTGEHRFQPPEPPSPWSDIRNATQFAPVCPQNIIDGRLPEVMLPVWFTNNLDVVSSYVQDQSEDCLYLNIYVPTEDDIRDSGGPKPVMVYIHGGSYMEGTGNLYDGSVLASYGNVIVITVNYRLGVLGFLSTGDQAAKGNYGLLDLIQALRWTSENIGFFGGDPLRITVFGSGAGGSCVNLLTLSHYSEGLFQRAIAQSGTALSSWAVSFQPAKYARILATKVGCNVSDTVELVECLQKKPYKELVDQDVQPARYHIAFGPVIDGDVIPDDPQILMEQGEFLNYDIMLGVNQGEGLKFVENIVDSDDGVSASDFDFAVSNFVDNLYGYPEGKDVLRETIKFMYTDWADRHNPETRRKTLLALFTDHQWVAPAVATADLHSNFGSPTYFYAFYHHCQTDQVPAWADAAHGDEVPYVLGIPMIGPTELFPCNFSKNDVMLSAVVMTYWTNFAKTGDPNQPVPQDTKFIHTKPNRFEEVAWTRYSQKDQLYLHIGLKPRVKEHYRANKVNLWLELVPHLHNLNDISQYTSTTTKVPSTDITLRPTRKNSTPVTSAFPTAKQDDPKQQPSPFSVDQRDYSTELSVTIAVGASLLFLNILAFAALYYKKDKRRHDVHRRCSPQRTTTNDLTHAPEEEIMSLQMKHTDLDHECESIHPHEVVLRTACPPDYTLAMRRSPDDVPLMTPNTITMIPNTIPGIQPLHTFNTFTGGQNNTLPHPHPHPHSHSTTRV
Sequence of Neurexin-1-beta (Rattus norvegicus (Rat)), Q63373-3 N103A (Q63373 other isoform, or with tags, fused parts or gaps N103A): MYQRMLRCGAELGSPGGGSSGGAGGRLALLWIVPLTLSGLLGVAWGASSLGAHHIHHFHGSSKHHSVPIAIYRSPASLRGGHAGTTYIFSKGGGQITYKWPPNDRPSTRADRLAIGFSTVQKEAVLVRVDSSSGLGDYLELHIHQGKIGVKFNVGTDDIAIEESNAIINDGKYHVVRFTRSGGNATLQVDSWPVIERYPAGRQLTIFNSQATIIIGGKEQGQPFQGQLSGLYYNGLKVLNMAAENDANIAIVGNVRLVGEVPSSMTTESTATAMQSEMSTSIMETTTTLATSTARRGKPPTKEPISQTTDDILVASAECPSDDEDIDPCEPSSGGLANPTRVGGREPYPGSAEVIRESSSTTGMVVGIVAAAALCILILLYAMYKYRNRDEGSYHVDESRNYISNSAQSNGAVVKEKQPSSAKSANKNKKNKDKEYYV
Sequence of Neurexin-1-beta (Rattus norvegicus (Rat)), Q63373-3 R109A (Q63373 other isoform, or with tags, fused parts or gaps R109A): as the sequence (Q63373 other isoform, or with tags, fused parts or gaps N103A) above
Sequence of Neurexin-1-beta (Rattus norvegicus (Rat)), Q63373-3 R202A (Q63373 other isoform, or with tags, fused parts or gaps R202A): as the sequence (Q63373 other isoform, or with tags, fused parts or gaps N103A) above
Sequence of Neurexin-1-beta (Rattus norvegicus (Rat)), Q63373-3 I206A (Q63373 other isoform, or with tags, fused parts or gaps I206A): as the sequence (Q63373 other isoform, or with tags, fused parts or gaps N103A) above

Neurexin-1-beta (Rattus norvegicus (Rat)), Q63373-3 N103A
effect of a mutation on the interaction (Nlgn1, Q62765-2 [1]): decreasing interaction
effect of a mutation on the interaction (nlgnx_human NLGN4X [2]): decreasing interaction

Neurexin-1-beta (Rattus norvegicus (Rat)), Q63373-3 I206A
effect of a mutation on the interaction (Nlgn1, Q62765-2 [3]): disrupting interaction
effect of a mutation on the interaction (nlgnx_human NLGN4X [4]): disrupting interaction

Neurexin-1-beta (Rattus norvegicus (Rat)), Q63373-3 R202A
effect of a mutation on the interaction (nlgnx_human NLGN4X [5]): disrupting interaction
effect of a mutation on the interaction (Nlgn1, Q62765-2 [6]): decreasing interaction

Neurexin-1-beta (Rattus norvegicus (Rat)), Q63373-3 R109A
effect of a mutation on the interaction (nlgnx_human NLGN4X [7]): disrupting interaction
effect of a mutation on the interaction (Nlgn1, Q62765-2 [8]): decreasing interaction

From IntAct's records for PubMed 20543817
